According to publication PMC9270392, “An ancestral function of strigolactones as symbiotic rhizosphere signals” (Nature Communications, 2022):

Substrate: CC1=CC(O/C=C(C)\C=C\C2=C(C)CCCC2(C)C)OC1=O
Assay: LC-MS/MS of BSB formed by yeast microsomes, Michaelis-Menten fit
Assay type: biochemical, Marchantia paleacea
Conditions: rac-CL 0.25 to 33 μM, NADPH 500 μM, 28 °C, 10 min, microsomes of WAT11 yeast, overall two-step conversion CL to BSB via CLA

B1: MpaMAX1 (Marchantia paleacea subsp. diptera) (protein)
chain: MITSMEGWTGVGALGSLVFMVVIMVYYFYPTWKVRHIPVPPYTWFLGHIPLLTKHQALCWTMLAKDYGPMYRFHVGRQPMVMVTDAELCRQVGLKLFKQVPNRSNPAMIEGSSVLKKALFFSRDEQWSGMKSILQPLFHSDKMNNYTPIMTQIVDELLERLRSVKEGEDVNISRLFQRLTLDVIGEVAFGIKFGLVLETPGPDEWLVQTTVKSIDALRMDAGAGVPLSTIVGTFFPILQKPFRSLLRMIPGTPEWVADGSDHALKLRLRQIQQEREELMRRNGSVSRVDSLSLLLNSSKLNKQNGKLLTQDYIGALTYELTLVGSETSSVTLSMLTYLLALHPECERKMLAEIDAFGPRDLPITTEDLETKFPYVDMVIKETMRKHTTTPVVAREASEDIELGGYHLPKGTWVWLVLEALQMNPKDFPEPEEFRPERFDENCDEAKTRHPYAFLPFGVGPRSCLGKRFAAQEVKLTVVRLYQNFTFTLSPLTKVPLETQFGIVVRPKHGVCVRVHPRWTRL
notes: cDNA in pYeDP60, expressed in yeast WAT11 (Saccharomyces cerevisiae); microsomal fraction
In the case of B1, the Km is reported as 4.78 ± 1.22 µM.
